{
  "source": "patent US11123413B2",
  "about": "“Carbapenemases for use with antibiotics for the protection of the intestinal microbiome” (priority 2015, dated 2021)",
  "key": {"[1]": {"test": "Oral P2A and intravenous ceftriaxone in jejunal-fistulated dogs", "assay_type": "in vivo, laboratory beagles", "settings": "peroral P2A 2.5 mg/kg, intravenous ceftriaxone 30 mg/kg, omeprazole", "method": "The ability of P2A to degrade ceftriaxone in the dog intestinal tract was evaluated using laboratory beagles that had permanent jejunal fistulas. The fistulas allowed the repeated collection of jejunal chyme specimens from these animals. Dogs were treated with peroral P2A (2.5 mg/kg) in a liquid formulation (PBS buffer), and/or intravenous ceftriaxone (30 mg/kg). A single dose of omeprazole (10 mg) was delivered orally to each dog prior to treatment with ceftriaxone and/or P2A to inhibit the HCl activity in the stomach to potentially reduce P2A degradation. Serum samples were collected and serum ceftriaxone levels quantified. Jejunal chyme samples were collected and ceftriaxone and P2A levels were quantified. Ceftriaxone levels in serum and chyme were measured using a plate diffusion method using ceftriaxone susceptible Micrococcus luteus TS504 as the test strain. P2A activity levels in chyme were determined spectrophotometrically using meropenem as a substrate. Meropenem hydrolysis was monitored at a wavelength of 297 nm."}, "[2]": {"system": "E. coli (ATCC 25922)", "test": "Antibiotic inactivation screening assay via E. coli growth (96 well plate, OD625)", "assay_type": "cell-based", "settings": "10 ng/ml or 100 ng/ml enzyme (FIG. 35)"}, "[3]": {"test": "Oral P2A and intravenous ampicillin in jejunal-fistulated dogs", "assay_type": "in vivo, laboratory beagles", "settings": "peroral P2A 1 mg/kg liquid formulation, intravenous ampicillin 40 mg/kg", "method": "The ability of P2A to degrade ampicillin in the dog intestinal tract was evaluated using laboratory beagles that had permanent jejunal fistulas. The fistulas allowed the repeated collection of jejunal chyme specimens from these animals. Dogs were treated with peroral P2A (1 mg/kg) in a liquid formulation (PBS buffer), and/or intravenous ampicillin (40 mg/kg). Serum samples were collected and serum ampicillin levels quantified. Jejunal chyme samples were collected and ampicillin and P2A levels were quantified. Ampicillin levels in serum and chyme were measured using a standard reverse phase HPLC method. P2A activity levels in chyme were determined spectrophotometrically using meropenem as a substrate. Meropenem hydrolysis was monitored at a wavelength of 297 nm."}, "[4]": {"test": "P2A enteric-coated pellets and intravenous cefotaxime in jejunal-fistulated dogs", "assay_type": "in vivo, laboratory beagles", "settings": "enteric-coated pellets, 0.5 mg/kg or 0.25 mg/kg P2A, intravenous cefotaxime 120 mg/kg", "method": "An enteric-coated pellet formulation of P2A was produced using methods similar to that used successfully for the production of the P1A enteric-coated pellets (e.g. sucrose core particles, pH-dependent polymer Eudragit L 30 D-55 coating, see Tarkkanen, Antimicrobial Agents and Chemotherapy, June 2009, p. 2455-2462, the entire contents of which are hereby incorporated by reference).\nThe ability of P2A to degrade cefotaxime in the dog intestinal tract was evaluated using laboratory beagles that had permanent jejunal fistulas. The fistulas allowed the repeated collection of jejunal chyme specimens from these animals. Dogs were treated with peroral P2A enteric-coated pellets at two doses, 0.5 mg/kg or 0.25 mg/kg of P2A content and/or intravenous cefotaxime (120 mg/kg). The dosing was performed twice. Animals were fed 20 minutes before P2A was delivered orally. Each animal received 3-5 P2A capsules, dependent on the P2A dose and the body weight. Cefotaxime was delivered intravenously 10 minutes after P2A administration. […] Cefotaxime levels in chyme were measured using a plate diffusion method using cefotaxime susceptible Micrococcus luteus TS504 as the test strain. P2A activity levels in chyme were determined spectrophotometrically using meropenem as a substrate. Meropenem hydrolysis was monitored at a wavelength of 297 nm."}, "[5]": {"test": "Oral P2A and intravenous cefotaxime in jejunal-fistulated dogs", "assay_type": "in vivo, laboratory beagles", "settings": "peroral P2A 1 mg/kg, intravenous cefotaxime 60 mg/kg, omeprazole", "method": "The ability of P2A to degrade cefotaxime in the dog intestinal tract was evaluated using laboratory beagles that had permanent jejunal fistulas. The fistulas allowed the repeated collection of jejunal chyme specimens from these animals. Dogs were treated with peroral P2A (1 mg/kg) in a liquid formulation (PBS buffer), and/or intravenous cefotaxime (60 mg/kg). A single dose of omeprazole (10 mg) was delivered orally to each dog prior to treatment with ceftriaxone and/or P2A to inhibit the HCl activity in the stomach to potentially reduce P2A degradation. Serum samples were collected and serum cefotaxime levels quantified. Jejunal chyme samples were collected and cefotaxime and P2A levels were quantified. Cefotaxime levels in serum and chyme were measured using a plate diffusion method using cefotaxime susceptible Micrococcus luteus TS504 as the test strain. P2A activity levels in chyme were determined spectrophotometrically using meropenem as a substrate. Meropenem hydrolysis was monitored at a wavelength of 297 nm."}},
  "data": [
    {"molecule": "P2A: broad spectrum carbapenemase, class B metallo-enzyme requiring zinc, SEQ ID NO: 37; P2A-21 = product of strain SYT-PP0602-21 (protein) ETGTISISQLNKNVWVHTELGYFNGEAVPSNGLVLNTSKGLVLVDSSWDNKLTKELIEMVEKKFQKRVTDVIITHAHADRIGGITALKERGIKAHSTALTAELAKNSGYEEPLGDLQTITSLKFGNTKVETFYPGKGHTEDNIVVWLPQYQILAGGCLVKSAEAKDLGNVADAYVNEWSTSIENVLKRYGNINSVVPGHGEVGDKGLLLHTLDLLK", "values": [
      {"measurement": "ceftriaxone in jejunal chyme", "setting": "[1]", "result": "degraded ceftriaxone"},
      {"measurement": "effect on serum levels of ceftriaxone", "setting": "[1]", "result": "does not reduce serum levels of ceftriaxone"},
      {"measurement": "activity against cephalosporins compared to SYN-004 or P4A", "setting": "[2]", "result": "not as active against the cephalosporins, cefozolin, cefoperazone, cefepime, and ceftazidime"},
      {"measurement": "ampicillin in jejunal chyme", "setting": "[3]", "result": "degraded ampicillin"},
      {"measurement": "effect on serum levels of ampicillin", "setting": "[3]", "result": "does not reduce serum levels of ampicillin"},
      {"measurement": "cefotaxime degradation in the intestinal tract", "setting": "[4]", "result": "degraded cefotaxime"},
      {"measurement": "overall cefotaxime levels in chyme", "setting": "[4]", "result": "lower overall levels of cefotaxime in their chyme"},
      {"measurement": "cefotaxime in jejunal chyme", "setting": "[5]", "result": "degraded cefotaxime"},
      {"measurement": "effect on serum levels of cefotaxime", "setting": "[5]", "result": "does not reduce serum levels of cefotaxime"}
    ]}
  ]
}
